Assay results: patent US20250018038A1 (UNIVERSITY OF CHICAGO, published 2025)
Numbering of substitutions follows the chain as printed.

Target: T1, Survivin (purified recombinant Survivin protein) (human, UniProt O15392 1-140, limits assumed, biotinylated on the Avi-tag by BirA (antigens for selection and ELISA))
T1 construct: also called Baculoviral IAP repeat-containing protein 5; BIRC5
Experiment: multipoint protein ELISA: 50 nM immobilised target, 3-fold serial dilutions of purified Fab, protein L-HRP, sigmoidal fit
Protocol: Protein based multipoint ELISA was performed to estimate the affinity of the generated unique Fabs to their cognate antigens. A fixed concentration of the immobilized target (50 nM) on ELISA plate was incubated with 3-fold serial dilutions of the purified Fabs starting from […] for 15 min. The plates were washed and the bound antigen-Fab complexes were incubated with H1RP-conjugated protein L (1:5000 dilution in PBST). As with phage ELISA, the plates were again washed, developed with TMB substrate and quenched with 1.0 M HCl, and absorbance (A450) was determined. To determine the affinity, the data were fitted in a non-linear sigmoidal function with variable slope in GraphPad PRISM and EC50 value was calculated (FIG. 2).

T1 sequence (O15392 1-140 limits assumed): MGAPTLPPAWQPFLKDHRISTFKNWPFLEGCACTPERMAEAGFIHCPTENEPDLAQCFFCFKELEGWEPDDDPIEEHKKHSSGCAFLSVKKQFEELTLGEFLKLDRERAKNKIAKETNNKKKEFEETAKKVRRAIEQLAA

B1: SUR-N-09 (Fab, V domains shown)
VH: EVQLVESGGGLVQPGGSLRLSCAASGFNFYYSSIHWVRQAPGKGLEWVASISPYSGYTSYADSVKGRFTISADTSKNTAYLQMNSLRAEDTAVYYCARYMYYGWALDYWGQGTLVTVSS
VL: DIQMTQSPSSLSASVGDRVTITCRASQSVSSAVAWYQQKPGKAPKLLIYSASSLYSGVPSRFSGSRSGTDFTLTISSLQPEDFATYYCQQGQWWGLITFGQGTKVEIKR
notes: also called SUR-N-09 Fab
B1 was tested, and the EC50 was 30 nM.

B2: SUR-FL-22 (Fab, V domains shown)
VH: EVQLVESGGGLVQPGGSLRLSCAASGFNFYSSYIHWVRQAPGKGLEWVASIYSYSSSTSYADSVKGRFTISADTSKNTAYLQMNSLRAEDTAVYYCARAGWYWYYGIQFAFDYWGQGTLVTVSS
VL: B1 VL with G91Q, Q92R, W93Y, W94G, G95S
notes: also called SUR-FL-22 Fab
B2 showed an EC50 of 3 nM.

B3: SUR-N-53 (Fab, V domains shown)
VH: EVQLVESGGGLVQPGGSLRLSCAASGFNVSSSYIHWVRQAPGKGLEWVASIYSYYGSTSYADSVKGRFTISADTSKNTAYLQMNSLRAEDTAVYYCARSFTEKWAYSWAIDYWGQGTLVTVSS
VL: DIQMTQSPSSLSASVGDRVTITCRASQSVSSAVAWYQQKPGKAPKLLIYSASSLYSGVPSRFSGSRSGTDFTLTISSLQPEDFATYYCQQYAWSLFTFGQGTKVEIKR
notes: also called SUR-N-53 Fab
Binder B3 has an EC50 of 100 nM.

B4: SUR-FL-47 (Fab, V domains shown)
VH: EVQLVESGGGLVQPGGSLRLSCAASGFNVSYSSIHWVRQAPGKGLEWVASIYSYYGYTSYADSVKGRFTISADTSKNTAYLQMNSLRAEDTAVYYCARWPHYWGQGVSSMDYWGQGTLVTVSS
VL: B3 VL with Y91S, A92Y, W93Y, S94F, L95P, F96V
notes: also called SUR-FL-47 Fab
With B4 the EC50 was 29 nM.

B5: SUR-FL-31 (Fab, V domains shown)
VH: EVQLVESGGGLVQPGGSLRLSCAASGFNFSSSSIHWVRQAPGKGLEWVASISSYSGYTYYADSVKGRFTISADTSKNTAYLQMNSLRAEDTAVYYCARGKQKSYGQWYFYYWAIDYWGQGTLVTVSS
VL: B3 VL with Y91S, A92S, W93S, F96I
notes: also called SUR-FL-31 Fab
B5 was tested, and the EC50 was 2 nM.

B6: SUR-FL-24 (Fab, V domains shown)
VH: EVQLVESGGGLVQPGGSLRLSCAASGFNFYSSSIHWVRQAPGKGLEWVASIYPYYSSTSYADSVKGRFTISADTSKNTAYLQMNSLRAEDTAVYYCARWYHYYSVQQYGLDYWGQGTLVTVSS
VL: B3 VL with Y91S, A92T, W93S, S94F, L95P, F96I
notes: also called SUR-FL-24 Fab
With B6 the EC50 was 18 nM.

B7: SUR-N-28 (Fab, V domains shown)
VH: EVQLVESGGGLVQPGGSLRLSCAASGFNFSSSYIHWVRQAPGKGLEWVASIYSSYGYTSYADSVKGRFTISADTSKNTAYLQMNSLRAEDTAVYYCARSYYYQYSGGWRGYYHALDYWGQGTLVTVSS
VL: B3 VL with Y91S, A92S, W93S, F96I
notes: also called SUR-N-28 Fab
In the case of B7, the EC50 is reported as 3 nM.

B8: SUR-FL-23 (Fab, V domains shown)
VH: EVQLVESGGGLVQPGGSLRLSCAASGFNFSSSSIHWVRQAPGKGLEWVASISSYSSSTSYADSVKGRFTISADTSKNTAYLQMNSLRAEDTAVYYCARYMVSMWSYSWYVKWYAMDYWGQGTLVTVSS
VL: B3 VL with Y91S, A92S, W93S, F96I
notes: also called SUR-FL-23 Fab
B8 gave an EC50 of 1 nM.

B9: SUR-FL-25 (Fab, V domains shown)
VH: EVQLVESGGGLVQPGGSLRLSCAASGFNVYSSSIHWVRQAPGKGLEWVASIYPYYSYTSYADSVKGRFTISADTSKNTAYLQMNSLRAEDTAVYYCARWKKSRSGGMWGMDYWGQGTLVTVSS
VL: B3 VL with A92S, W93S, S94F, L95P, F96I
notes: also called SUR-FL-25 Fab
B9 showed an EC50 of 10 nM.

B10: SUR-FL-26 (Fab, V domains shown)
VH: EVQLVESGGGLVQPGGSLRLSCAASGFNVSYSSIHWVRQAPGKGLEWVASISPYYGYTYYADSVKGRFTISADTSKNTAYLQMNSLRAEDTAVYYCARWYFEYPYYMWGLDYWGQGTLVTVSS
VL: B3 VL with Y91S, A92Y, W93K, S94P, L95P, F96I
notes: also called SUR-FL-26 Fab
For B10, the EC50 was less than 1 nM.
